± gives the standard deviation.
Assay: protein stability index of a GFP-peptide fusion (GPS, HEK-293T) (PSI 1-6); higher = more stable
[1] = treatment: DMSO, c terminus: a fixed tail appended
[2] = treatment: MLN4924 1 uM, 8 h, c terminus: a fixed tail appended
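Note: 24-mer peptide tiles fused after GFP, lentivirally expressed, FACS-sorted into six equal bins by GFP/DsRed ratio, decoded by Illumina sequencing, PSI is the read-weighted mean bin number.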

Row | Sequence | protein stability index [1] | protein stability index [2] | protein stability index (treatment: DMSO, c terminus: native) | protein stability index (treatment: MLN4924 1 uM, 8 h, c terminus: native)
1 | AERLFENQLVGPESIAHIGDVMFT [APMAP] | 2.99 ± 0.38 | 3.16 ± 0.31 | – | –
2 | NDKFSFHEVKDNYIPVIKRALNSV [RHOBTB3] | 2.19 ± 0.49 | 2.41 ± 0.24 | – | –
3 | DPTWIESPKTNGHIENGPFSLEQQ [SRPK2] | 4.78 ± 0.11 | 4.75 ± 0.22 | – | –
4 | VRAKGSQSGRHLQTHSNTIVVSLQ [STX5] | 2.48 ± 0.24 | 2.64 ± 0.075 | – | –
5 | IHDALLEAVTCGNTEVPARNLYAY [PTPRD] | 2.29 ± 0.35 | 2.39 ± 0.14 | – | –
6 | RYNFTPDPDFKDLGALKPLPACEF [NETO1] | 2.87 ± 0.19 | 2.93 ± 0.33 | – | –
7 | LRQRESKWLDMLNNWDKWMAKKHK [TBC1D10A] | 2.9 ± 0.24 | 3.2 ± 0.41 | – | –
8 | QRPRFITSGGSNIIYVASNHFVWR [VPS39] | 2.12 ± 0.23 | 2.49 ± 0.25 | – | –
9 | PKAKAKAKAKAKDQTKAQAAAPAS [RPL29] | 5.2 ± 0.22 | 5.21 ± 0.072 | – | –
10 | IRQLATSGRFIVIIPRTVIDGLDL [SMG5] | 2.88 ± 0.61 | 2.68 ± 0.7 | – | –
11 | LLKDKVRERIQILKTSEVTQHLPR [PTPN9] | 2.7 ± 0.32 | 2.99 ± 0.075 | – | –
12 | EENMERIGEEVRQLMEKLREKQLS [BEX1] | 4.57 ± 0.38 | 4.35 ± 0.5 | – | –
13 | MLALRGQTGGDVNVEMDAAPGVDL [KRT16] | 4.25 ± 0.17 | 4.78 ± 0.17 | – | –
14 | APSIDLFSTDAFSSPPQGASPVPE [SNAP91] | 4.94 ± 0.34 | 5.04 ± 0.21 | – | –
15 | QMASQSSASHYKLQVIKALKSSGL [M1AP] | 2.82 ± 0.26 | 2.77 ± 0.21 | – | –
16 | GSSGASDQDTLAPLPHPGAAPWPM [DVL3] | 4.2 ± 0.15 | 4.3 ± 0.09 | – | –
17 | GIDLAVYETLKNAWLQHYAVNSAD [SLC25A25] | 2.84 ± 0.44 | 2.4 ± 0.33 | – | –
18 | VTDYFFTLVQREEPLRILSKYHRF [CDS2] | 2.45 ± 0.21 | 2.42 ± 0.28 | – | –
19 | TYAMGHLIQRKKVHVFGDELSLVT [TNFSF13B] | 2.32 ± 0.3 | 2.42 ± 0.21 | – | –
20 | IETLRLAKNYIWALSEILRIGKRP [NEUROD6] | 3.08 ± 0.73 | 2.65 ± 0.57 | – | –
21 | DTGVAFELRDSSAYHVPNRTLASG [DNAAF3] | 3.87 ± 0.18 | 3.94 ± 0.054 | – | –
22 | CNTFVYSSSKGTIRLCDMRASALC [PPP2R2B] | 2.5 ± 0.53 | 2.34 ± 0.51 | – | –
23 | LDRHQLPLDDALLSFAHANCTLII [DPCD] | 2.69 ± 0.56 | 2.63 ± 0.48 | – | –

Row | Sequence | protein stability index [1] | protein stability index [2] | protein stability index (treatment: DMSO, c terminus: native) | protein stability index (treatment: MLN4924 1 uM, 8 h, c terminus: native)
24 | RMRYLNGLDPEPLPLMDLCRRSVR [SPSB1] | 3.21 ± 0.27 | 3.36 ± 0.1 | – | –
25 | TAPLTELLHSRNEGVATYAAAVLF [CTNNB1] | 2.25 ± 0.46 | 2.36 ± 0.34 | – | –
26 | LRPQRTKQYVLLSILLCLLASGLV [TMEM106C] | 3.11 ± 0.38 | 2.9 ± 0.26 | – | –
27 | DLSKPPCRKAKEIRKERKRLKLMQ [ATE1] | 3.55 ± 0.13 | 3.64 ± 0.35 | – | –
28 | YFYPRGGGSGGGAGGAGGGVTEEQ [JUNB] | 5.01 ± 0.3 | 4.89 ± 0.41 | – | –
29 | GILHYAHGDSQQTHLLKQGRSSMG [CRY1] | 3.6 ± 0.23 | 3.52 ± 0.3 | – | –
30 | FLPSLRPPPLTSPSHGSLSHSKAP [NCF4] | 3.45 ± 0.13 | 3.63 ± 0.14 | – | –
31 | RYGQLIEINSHSLFSKWFSESGKL [TRIP13] | 2.27 ± 0.49 | 2.49 ± 0.83 | – | –
32 | SKSLCHDEIENLLDSDHRELIGDY [CDC25B] | 4.13 ± 0.26 | 4.31 ± 0.27 | – | –
33 | ELFIEISRRIPSTDANLPSGGKGF [RAB22A] | 2.36 ± 0.33 | 2.14 ± 0.34 | – | –
34 | QMELLLVNKLKWNLAAMTPHDFIE [CCND1] | 2.91 ± 0.6 | 2.71 ± 0.5 | – | –
35 | DVFERDWYSPYAKTLQPTKQPNCS [PLD5] | 3.49 ± 0.54 | 3.24 ± 0.15 | – | –
36 | QGSQASQAPPVPGPPPGAPHTPQT [NR2F2] | 5.13 ± 0.27 | 5 ± 0.51 | – | –
37 | KIKDARKGPLVPFPNQKSEAAEPP [KMT5A] | 4.95 ± 0.22 | 5.11 ± 0.19 | – | –
38 | ATFLVTFGNSEKPETMTCRLSNNQ [ZFYVE21] | 2.39 ± 0.15 | 2.24 ± 0.19 | – | –
39 | NRMHESMKLFDSICNNKWFTDTSI [GNAI1] | 2.38 ± 0.27 | 2.33 ± 0.45 | – | –
40 | DVVFEIQGTTVPAHRAILVARCEV [RHOBTB3] | 2.69 ± 0.85 | 2.51 ± 0.44 | – | –
41 | RRENYGVPPRRATISSWRNDRMST [RBMY1A1] | 3.31 ± 0.28 | 3.43 ± 0.068 | – | –
42 | MLWEHNSTIVVMLTKLREMGREKC [PTPRD] | 2.33 ± 0.55 | 2.15 ± 0.2 | – | –
43 | LTISAAFNIVYIYTSELYPTVIRN [SLC22A15] | 3.19 ± 0.14 | 3.13 ± 0.33 | – | –
44 | KNEPYLEAACNDVDRWPAPVPGKT [DENND6A] | 4.62 ± 0.23 | 4.67 ± 0.19 | – | –
45 | DSLLLHSSGQCRRRKRTYWNDSCG [WEE1] | 2.75 ± 0.29 | 2.82 ± 0.47 | – | –
46 | GYSGTSDRIRFTVNRRISIVGFGL [BTBD1] | 2.83 ± 0.27 | 2.87 ± 0.36 | – | –

Row | Sequence | protein stability index [1] | protein stability index [2] | protein stability index (treatment: DMSO, c terminus: native) | protein stability index (treatment: MLN4924 1 uM, 8 h, c terminus: native)
47 | AQEVRPRRWKLQVLDLRKNSHQDF [PRAME] | 2.64 ± 0.37 | 2.96 ± 0.31 | – | –
48 | LCPGDLIQAINGESTELMTHLEAQ [PDLIM4] | 4.51 ± 0.26 | 4.54 ± 0.094 | – | –
49 | SGACGAFVHGLEDEMYEVRIAAVE [INTS4] | 2.71 ± 0.46 | 2.73 ± 0.5 | – | –
50 | EEENAQLRGALQQGEAFQRALESE [PBXIP1] | 5.43 ± 0.32 | 5.39 ± 0.49 | – | –
51 | ETVYAAYLPKNTHPFLYLSLEISP [MLH1] | 2.82 ± 0.51 | – | – | –
52 | RHRSADVLGVADGVGGWRDYGVDP [PPTC7] | 4.14 ± 0.39 | 4.07 ± 0.48 | – | –
53 | PYTELRKQPLRKYVTPSDFDQLKQ [EFHC1] | 3.57 ± 0.2 | 3.51 ± 0.11 | – | –
54 | DGTFSPVTLALFFVLYFLLACWTY [CLCN6] | 3.07 ± 0.34 | 2.9 ± 0.21 | – | –
55 | SKDWEEVVVESMEQDRIPEVHVPP [MIA2] | 5.09 ± 0.25 | 4.87 ± 0.26 | – | –
56 | SDSLLTGMAFFKMREMFFEDHIDD [CNOT7] | 2.58 ± 0.054 | 3.3 ± 0.48 | – | –
57 | PYTPSPSSSRPISPGLSYASHTVG [CCDC6] | 3.84 ± 0.17 | 3.69 ± 0.19 | – | –
58 | FGEDGIFRHDRLRFRDFVDALEDS [PBXIP1] | 3.29 ± 0.32 | 3.58 ± 0.46 | – | –
59 | SSKSSGDLVDLFDGTSQSTGGSAD [CLINT1] | 5.41 ± 0.22 | 5.55 ± 0.21 | – | –
60 | SCKLVRDKITGQSLGYGFVNYSDP [ELAVL3] | 2.4 ± 0.19 | 2.5 ± 0.37 | – | –
61 | LMGEIAKATFMYEQFPELMNMLWS [CLINT1] | 2.61 ± 0.62 | 2.33 ± 0.32 | – | –
62 | NLLNMAYGVKSPLSLIARFSPIAI [ELAVL3] | 2.83 ± 0.58 | 2.81 ± 0.65 | – | –
63 | PVANSGTKPKTTAIQGISEKEKAE [DLC1] | 5.51 ± 0.28 | 5.68 ± 0.28 | – | –
64 | EREAEKEQKRLERLQRKLVEPKHC [SDE2] | 4.7 ± 0.17 | 4.82 ± 0.085 | – | –
65 | LSLRQTGSPGMIYSTRYGSPKRQL [KCNAB2] | 2.98 ± 0.51 | 3.17 ± 0.31 | – | –
66 | FKLADPDEVARRWGKRKNKPKMNY [ETS2] | 3.48 ± 0.48 | 3.67 ± 0.13 | – | –
67 | HESEGGRTPLMKAARAGHVCTVQF [ANKRD17] | 2.71 ± 0.28 | 2.6 ± 0.33 | – | –
68 | ELVYADDYIMDEDQSKLAGLLDLN [ESRRG] | 3.48 ± 0.21 | 3.68 ± 0.21 | – | –
69 | SESRGSSGRVKRERDREREPEAAS [USP39] | 5.53 ± 0.24 | 5.59 ± 0.19 | – | –

Row | Sequence | protein stability index [1] | protein stability index [2] | protein stability index (treatment: DMSO, c terminus: native) | protein stability index (treatment: MLN4924 1 uM, 8 h, c terminus: native)
70 | PPKSVNPTCMCCQATSSTACHIQ [FAM219A] | – | – | 2.92 ± 0.29 | 3.07 ± 0.16
71 | EVWGNALLRPPVAAFVRAQADLLA [DNAAF3] | 2.39 ± 0.31 | 2.02 ± 0.37 | – | –
72 | AEYPANGSGADRIYDLNIPAFVKF [NCK2] | 2.88 ± 0.33 | 2.7 ± 0.29 | – | –
73 | IGIPLFFLELAVGQRIRRGSIGVW [SLC6A17] | 2.51 ± 0.34 | 2.28 ± 0.23 | – | –
74 | LYWRDIKQTGIVFGSFLLLLFSLT [RTN1] | 2.52 ± 0.22 | 2.35 ± 0.23 | – | –
75 | LMNDVIDTSGFPDLSDNRNEDPLV [FBXO33] | 4.85 ± 0.17 | 4.9 ± 0.18 | – | –
76 | RRMFSSLFQFSNCSQGQQLATFSS [CCDC3] | 2.31 ± 0.2 | 2.34 ± 0.98 | – | –
77 | RTADEATNTGPAGSSASTSPAPLD [DYRK1B] | 5.5 ± 0.28 | 5.34 ± 0.21 | – | –
78 | QAPGQPPGNQAEHGAVTVGGTSVG [ZBTB22] | 4.9 ± 0.43 | 5.17 ± 0.21 | – | –
79 | DQVPSMQDGSESFFFRHGHRGLLT [SPAG8] | 3.39 ± 0.28 | 3.54 ± 0.35 | – | –
80 | TYLENKGHRYPCFFNTLHVGGTIR [POP5] | 2.23 ± 0.14 | 2.19 ± 0.052 | – | –
81 | ERLASANLRVLVDCILRDTSEDLR [TEKT4] | 2.21 ± 0.48 | 2.05 ± 0.15 | – | –
82 | VEVDESEPYPSQLLKPIPEYSPEE [TRAF3IP2] | 5.48 ± 0.44 | 5.46 ± 0.35 | – | –
83 | ESDPSDPNKDMVVQLIDDFKISGM [SRPK2] | 4.82 ± 0.3 | 4.8 ± 0.26 | – | –
84 | ARMLFSAVEWARNIPFFPDLQITD [NR2F2] | 2.1 ± 0.21 | 2.09 ± 0.28 | – | –
85 | YLYYDPDYSFLSLGVYSALREIAF [ATE1] | 2.92 ± 0.2 | 2.67 ± 0.24 | – | –
86 | FSSQKLKCLSMFPHYICTLKQPHL [PNLIPRP1] | 2.66 ± 0.57 | 2.17 ± 0.35 | – | –
87 | GSRTPGRSELVEGCGWRCPEHGDR [TRIM14] | 4.19 ± 0.3 | 4.48 ± 0.074 | – | –
88 | RACSHLIRLMQRCWQGDPRVRPTF [RIPK4] | 2.87 ± 0.45 | 2.83 ± 0.2 | – | –
89 | VFDAMFNGGMATTSAEIELPDVEP [BTBD1] | 4.68 ± 0.28 | 4.77 ± 0.24 | – | –

Reference: the supplement of paper PMC10567573
